Experimental data published in patent publication US6713443B1, “Compounds which modify serotoninergic transmission, diagnostic and therapeutic applications” (Institut Pasteur, priority 1993, dated 2004).
Each block holds one molecule with its values, some of them ahead of it. No end group written: not given here.

Assays:
[1] = test system: 5-HT1B/D receptors; test: Relative activity at 1 nM, [3H]5-HT binding; settings: 1 nM peptide or amino acid, 30 nM [3H]5-HT
Procedure: (§1) The binding experiments were performed as described above. […] Each value corresponds to the mean ± the standard deviation of three independent tests performed in quintuplicate.

[2] = test system: 5-HT1B/D receptors; test: Relative activity at 1 nM, [125I]cyanopindolol binding; settings: 1 nM peptide or amino acid, 0.3 nM [125I]cyanopindolol
Procedure: as §1

[3] = test system: mouse; test: Forced swimming test (Porsolt); format: in vivo; settings: reference antidepressants
Excerpt: The forced swimming test (Porsolt) is a simple test which cannot, under any circumstances, be assimilated with a model of “depression”.

[4] = target: 5-HT1B/1D receptors; test: inhibition of 30 nM [3H]5-HT binding, 1 nM peptide
[5] = target: T1, 5-HT1B receptor of rat brain (rat, UniProt P28564 1-386); test: inhibition of 0.3 nM [125I]cyanopindolol binding, 1 nM peptide
T1 construct: whole, on cells
T1 sequence (P28564 whole entry): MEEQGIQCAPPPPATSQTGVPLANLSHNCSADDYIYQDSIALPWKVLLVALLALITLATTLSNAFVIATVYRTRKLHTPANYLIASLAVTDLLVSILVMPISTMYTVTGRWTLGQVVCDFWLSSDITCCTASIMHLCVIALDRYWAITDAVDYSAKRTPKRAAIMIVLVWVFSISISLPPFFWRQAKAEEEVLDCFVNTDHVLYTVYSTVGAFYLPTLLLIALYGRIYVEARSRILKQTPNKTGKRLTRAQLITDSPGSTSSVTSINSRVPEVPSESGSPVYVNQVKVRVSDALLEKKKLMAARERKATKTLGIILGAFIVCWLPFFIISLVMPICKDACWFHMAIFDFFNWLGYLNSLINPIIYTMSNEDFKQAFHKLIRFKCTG

[6] = target: 5-HT1B/1D receptors; test: inhibition of [3H]5-HT or [125I]cyanopindolol binding to 5-HT1B/1D type receptors
[7] = test system: 5-HT1B/1D type receptors; test: Binding of [3H]5-HT or [125I]cyanopindolol to 5-HT1B/1D type receptors (short peptides)
[8] = test system: 5-HT receptor; test: Ligand activity of modified LSAL peptides on the 5-HT receptor; format: binding
[9] = target: 5-HT1B/1D receptors; test: cell-based or functional assay
[10] = target: 5-HT1 receptors; test: inhibition of [3H]5-HT binding to 5-HT1 receptors
[11] = target: 5-HT1B/1D receptors; test: inhibition of [3H]5-HT binding to 5-HT1nonA sites
[12] = target: T2, 5-HT1D receptors in guinea pigs (guinea pig, UniProt Q60484 1-376); test: inhibition of [3H]5-HT binding to 5-HT1D receptors, guinea pig
T2 construct: Native tissue; preparation not described
T2 sequence (Q60484 whole entry): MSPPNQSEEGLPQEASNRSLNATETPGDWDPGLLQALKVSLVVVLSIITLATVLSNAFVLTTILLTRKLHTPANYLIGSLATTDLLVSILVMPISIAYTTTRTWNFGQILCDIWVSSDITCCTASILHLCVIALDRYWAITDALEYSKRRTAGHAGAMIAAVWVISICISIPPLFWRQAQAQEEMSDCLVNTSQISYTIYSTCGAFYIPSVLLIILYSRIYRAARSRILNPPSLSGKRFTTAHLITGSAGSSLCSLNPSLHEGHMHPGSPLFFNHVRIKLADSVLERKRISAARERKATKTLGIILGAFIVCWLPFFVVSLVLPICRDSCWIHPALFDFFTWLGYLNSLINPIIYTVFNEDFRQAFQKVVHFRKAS

[13] = target: T3, 5-HT1D receptors of human brain (human, UniProt P28221 1-377); test: inhibition of [3H]5-HT binding to 5-HT1D receptors, human brain
T3 construct: whole, on cells; Native tissue; preparation not described
T3 sequence (P28221 whole entry): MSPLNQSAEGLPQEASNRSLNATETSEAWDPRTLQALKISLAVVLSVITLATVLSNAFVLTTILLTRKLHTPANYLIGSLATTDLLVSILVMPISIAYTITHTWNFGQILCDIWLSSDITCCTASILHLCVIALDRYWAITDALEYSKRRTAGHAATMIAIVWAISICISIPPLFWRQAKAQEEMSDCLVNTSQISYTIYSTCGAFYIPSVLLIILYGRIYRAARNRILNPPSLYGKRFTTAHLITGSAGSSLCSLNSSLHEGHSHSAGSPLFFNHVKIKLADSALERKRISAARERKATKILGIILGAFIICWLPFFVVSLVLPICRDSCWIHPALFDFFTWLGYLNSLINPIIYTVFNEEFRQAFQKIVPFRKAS

[14] = target: 5-HT1 receptors; test: inhibition of [3H]5-HT binding to 5-HT1 receptors, 10^-9 M peptide
[15] = target: 5-HT2A receptor of rat brain (rat) (UniProt P14842); test: radioligand binding, rat brain membranes, [3H]DOB (5 nM), 1 nM peptide
Sequence of 5-HT2A receptor of rat brain (rat) (P14842 whole entry): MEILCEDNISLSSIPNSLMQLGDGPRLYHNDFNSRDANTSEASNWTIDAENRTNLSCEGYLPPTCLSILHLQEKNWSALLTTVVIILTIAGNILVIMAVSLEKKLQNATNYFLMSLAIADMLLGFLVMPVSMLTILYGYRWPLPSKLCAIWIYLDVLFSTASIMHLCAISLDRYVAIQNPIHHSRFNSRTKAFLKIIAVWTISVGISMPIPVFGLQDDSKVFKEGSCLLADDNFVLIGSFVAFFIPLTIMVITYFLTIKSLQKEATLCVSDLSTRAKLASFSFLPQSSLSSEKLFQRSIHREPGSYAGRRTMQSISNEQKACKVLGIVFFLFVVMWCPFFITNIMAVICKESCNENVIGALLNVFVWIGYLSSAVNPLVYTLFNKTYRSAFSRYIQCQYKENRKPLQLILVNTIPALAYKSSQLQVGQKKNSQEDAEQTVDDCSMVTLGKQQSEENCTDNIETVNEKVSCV

[16] = target: opiate receptors of rat brain; test: radioligand binding, rat brain membranes, [3H]naloxone (2 nM), 1 nM peptide
[17] = target: α1 adrenergic receptors of rat brain; test: radioligand binding, rat brain membranes, [3H]prazosin (2 nM), 1 nM peptide
[18] = target: 5-HT1A receptors of rat brain (rat) (UniProt P19327); test: radioligand binding, rat brain membranes, [3H]8-OH-DPAT (3 nM), 1 nM peptide
Sequence of 5-HT1A receptors of rat brain (rat) (P19327 whole entry): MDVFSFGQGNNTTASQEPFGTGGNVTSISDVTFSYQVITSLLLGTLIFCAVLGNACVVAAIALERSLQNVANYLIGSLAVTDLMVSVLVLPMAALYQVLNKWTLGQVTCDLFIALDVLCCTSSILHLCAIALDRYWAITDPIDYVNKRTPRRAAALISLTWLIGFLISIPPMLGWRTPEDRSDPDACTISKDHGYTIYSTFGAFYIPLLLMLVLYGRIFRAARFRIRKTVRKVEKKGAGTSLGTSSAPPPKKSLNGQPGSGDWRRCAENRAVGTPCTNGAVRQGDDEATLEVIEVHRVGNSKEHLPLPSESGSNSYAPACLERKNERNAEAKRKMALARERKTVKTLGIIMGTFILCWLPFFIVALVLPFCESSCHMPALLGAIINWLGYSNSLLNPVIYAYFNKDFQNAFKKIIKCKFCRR

[19] = target: 5-HT3 receptor of rat brain (rat) (UniProt P35563); test: radioligand binding, rat brain membranes, [3H]BRL 43694 (3 nM), 1 nM peptide
Sequence of 5-HT3 receptor of rat brain (rat) (P35563 24-483): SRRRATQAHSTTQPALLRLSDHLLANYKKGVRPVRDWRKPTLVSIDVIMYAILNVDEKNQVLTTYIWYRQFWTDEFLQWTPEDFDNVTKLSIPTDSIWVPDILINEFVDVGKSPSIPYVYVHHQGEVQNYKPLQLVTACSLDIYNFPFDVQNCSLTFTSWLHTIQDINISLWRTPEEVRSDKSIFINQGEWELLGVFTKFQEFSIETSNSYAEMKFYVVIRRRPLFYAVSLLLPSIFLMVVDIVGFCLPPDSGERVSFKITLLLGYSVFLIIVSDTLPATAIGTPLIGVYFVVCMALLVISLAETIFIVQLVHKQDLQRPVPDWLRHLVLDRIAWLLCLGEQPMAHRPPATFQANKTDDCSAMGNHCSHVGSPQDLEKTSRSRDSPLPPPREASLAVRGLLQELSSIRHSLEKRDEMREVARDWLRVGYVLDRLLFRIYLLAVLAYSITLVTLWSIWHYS

[20] = target: T1, 5-HT1B receptor of rat brain; test: inhibition of [125I]cyanopindolol binding, rat cerebral tissue homogenates
[21] = target: 5-HT2A receptor of rat brain (rat) (UniProt P14842); test: radioligand binding, rat brain membranes, [3H]ketanserin (5 nM), 1 nM peptide
[22] = target: H1 histaminergic receptor of rat brain (rat) (UniProt P31390); test: radioligand binding, rat brain membranes, [3H]mepyramine (5 nM), 1 nM peptide
Sequence of H1 histaminergic receptor of rat brain (rat) (P31390 whole entry): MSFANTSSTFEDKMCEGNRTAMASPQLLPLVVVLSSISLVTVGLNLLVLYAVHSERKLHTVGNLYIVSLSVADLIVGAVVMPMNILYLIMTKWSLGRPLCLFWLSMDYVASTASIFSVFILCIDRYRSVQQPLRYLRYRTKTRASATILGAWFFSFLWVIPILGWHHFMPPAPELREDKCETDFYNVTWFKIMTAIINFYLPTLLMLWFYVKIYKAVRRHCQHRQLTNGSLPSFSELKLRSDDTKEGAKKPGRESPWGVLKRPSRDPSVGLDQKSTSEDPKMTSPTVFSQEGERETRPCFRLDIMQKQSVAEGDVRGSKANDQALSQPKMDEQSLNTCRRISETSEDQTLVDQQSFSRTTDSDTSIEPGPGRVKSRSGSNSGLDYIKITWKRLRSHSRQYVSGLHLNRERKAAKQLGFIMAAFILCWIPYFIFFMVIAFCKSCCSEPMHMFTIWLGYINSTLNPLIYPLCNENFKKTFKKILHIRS

[23] = target: benzodiazepine receptors of rat brain; test: radioligand binding, rat brain membranes, [3H]flunitrazepam (3 nM), 1 nM peptide
[24] = target: 5-HT1EFC; test: radioligand binding, rat brain membranes, [3H]5-HT (30 nM) + 20 nM 5-CT, 1 nM peptide
[25] = target: D2 dopaminergic receptor of rat brain (rat) (UniProt P61169); test: radioligand binding, rat brain membranes, [3H]epiperone (2 nM) + 10 µM 5-HT, 1 nM peptide
Sequence of D2 dopaminergic receptor of rat brain (rat) (P61169 whole entry): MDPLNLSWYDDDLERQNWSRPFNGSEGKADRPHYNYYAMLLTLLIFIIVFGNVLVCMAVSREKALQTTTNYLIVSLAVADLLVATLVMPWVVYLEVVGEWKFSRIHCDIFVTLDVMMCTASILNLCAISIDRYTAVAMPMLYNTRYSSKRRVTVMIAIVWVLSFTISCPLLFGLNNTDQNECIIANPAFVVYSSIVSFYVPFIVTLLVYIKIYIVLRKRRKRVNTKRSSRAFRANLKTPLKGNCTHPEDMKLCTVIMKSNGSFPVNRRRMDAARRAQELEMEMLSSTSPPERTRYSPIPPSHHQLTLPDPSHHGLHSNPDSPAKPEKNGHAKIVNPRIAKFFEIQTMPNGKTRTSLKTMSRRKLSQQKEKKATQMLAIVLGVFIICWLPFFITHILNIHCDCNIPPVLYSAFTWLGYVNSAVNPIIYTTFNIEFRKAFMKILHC

[26] = target: muscarinic receptors of rat brain; test: radioligand binding, rat brain membranes, [3H]quinuclidinyl benzilate (3 nM), 1 nM peptide
[27] = target: 5-HT1B/1D receptors; test: radioligand binding, rat brain membranes, [3H]5-HT (30 nM) + 0.1 µM 8-OH-DPAT, 1 nM peptide
[28] = target: β adrenergic receptors of rat brain; test: radioligand binding, rat brain membranes, [3H]dihydroalprenolol (3 nM) + 5-HT, 1 nM peptide

Molecule: C[C@H](N)C(=O)O [ALA]
- RELATIVE POTENCY, Receptors 5-HT1B/D ([3H]5-HT) [1]: 0 ± 4 percentage of the LSAL effect
- RELATIVE POTENCY, Receptors 5-HT1B/D ([125I]-cyanopindolol) [2]: 1.7 ± 1.68 percentage of the LSAL effect

Molecule: CC(C)C[C@H](N)C(=O)O [LEU]
- RELATIVE POTENCY, Receptors 5-HT1B/D ([3H]5-HT) [1]: 2 ± 9 percentage of the LSAL effect
- RELATIVE POTENCY, Receptors 5-HT1B/D ([125I]-cyanopindolol) [2]: 0 ± 2 percentage of the LSAL effect

Molecule: N[C@@H](CO)C(=O)O [SER]
- RELATIVE POTENCY, Receptors 5-HT1B/D ([3H]5-HT) [1]: 0 ± 5 percentage of the LSAL effect
- RELATIVE POTENCY, Receptors 5-HT1B/D ([125I]-cyanopindolol) [2]: 0 ± 1.7 percentage of the LSAL effect

Molecule: CN1Cc2c(N)cccc2C(c2ccccc2)C1 (stereo not shown) [nomifensine]
- activity in the forced swimming test compared with the peptide [3]: much more effective than the peptide

Molecule: AC-LEU-SER-ALA-LEU
- RELATIVE POTENCY, Receptors 5-HT1B/D ([3H]5-HT) [1]: 26.7 ± 10 percentage of the LSAL effect

Molecule: AC-LEU-SER-ALA-LEU (peptide)
- relative potency (% of the LSAL effect) (% of the LSAL effect) [4]: 26.7

Molecule: Ala-Leu (peptide)
- relative potency (% of the LSAL effect) (% of the LSAL effect) [4]: 50
- relative potency (% of the LSAL effect) (% of the LSAL effect) [5]: 61.5
- IC50 [6]: 1000 nM

Molecule: Ala-Leu-Leu-Ser (ALLS; printed: ALA-LEU-LEU-SER) [comparison peptide]
- activity on binding to the 5-HT1B/1D type receptors [7]: inactive
- RELATIVE POTENCY, Receptors 5-HT1B/D ([3H]5-HT) [1]: 10 ± 15 percentage of the LSAL effect
- RELATIVE POTENCY, Receptors 5-HT1B/D ([125I]-cyanopindolol) [2]: 23.6 ± 10.6 percentage of the LSAL effect

Molecule: Ala-Leu-Leu-Ser (peptide)
- relative potency (% of the LSAL effect) (% of the LSAL effect) [4]: 10
- relative potency (% of the LSAL effect) (% of the LSAL effect) [5]: 23.6

Molecule: Ala-Leu-Ser (ALS)
- IC50 [7]: 1000 nM
- RELATIVE POTENCY, Receptors 5-HT1B/D ([3H]5-HT) [1]: 28 ± 10 percentage of the LSAL effect
- RELATIVE POTENCY, Receptors 5-HT1B/D ([125I]-cyanopindolol) [2]: 33.8 ± 10 percentage of the LSAL effect

Molecule: LEU-SER-ALA-LEU-NH2 (peptide)
- relative potency (% of the LSAL effect) (% of the LSAL effect) [4]: 83.3

Molecule: LSALGGGY
- RELATIVE POTENCY, Receptors 5-HT1B/D ([3H]5-HT) [1]: 80.9 ± 9.5 percentage of the LSAL effect
- ligand activity on the 5-HT receptor [8]: still having a substantial activity

Molecule: Leu-Ser-Ala-Leu-NH2
- RELATIVE POTENCY, Receptors 5-HT1B/D ([3H]5-HT) [1]: 83.3 ± 16 percentage of the LSAL effect

Molecule: β-ALA-DL-LEU (peptide)
- relative potency (% of the LSAL effect) (% of the LSAL effect) [4]: 2

Second part, the molecule after the results:

- relative potency (% of the LSAL effect) (% of the LSAL effect) [4]: 28
- relative potency (% of the LSAL effect) (% of the LSAL effect) [5]: 33.8
- IC50 [6]: 1000 nM
Molecule: Ala-Leu-Ser (peptide)

- relative potency (% of the LSAL effect) (% of the LSAL effect) [4]: 0
Molecule: D-ALA-LEU (peptide)

- relative potency (% of the LSAL effect) (% of the LSAL effect) [4]: 1
- relative potency (% of the LSAL effect) (% of the LSAL effect) [5]: 1.7
Molecule: LEU-ALA (peptide)

- relative potency (% of the LSAL effect) (% of the LSAL effect) [4]: 45.7
- relative potency (% of the LSAL effect) (% of the LSAL effect) [5]: 53.8
- IC50 [6]: 10000 nM
Molecule: Leu-Ser (peptide)

- relative potency (% of the LSAL effect) (% of the LSAL effect) [4]: 4
Molecule: SER-LEU (peptide)

- relative potency (% of the LSAL effect) (% of the LSAL effect) [4]: 0
Molecule: β-ALA-LEU (peptide)

- K+-induced liberation of [3H]5-HT from rat brain hippocampus synaptosomes, apparent IC50 [9]: 0.01 nM
- relative potency (% of the LSAL effect) (% of the LSAL effect) [4]: 100
- IC50 [10]: 0.01 nM
- IC50 [11]: 0.01 nM
- IC50 [12]: 0.01 nM
- IC50 [13]: 0.01 nM
- maximum inhibitory effect [14]: 30 to 50%
- inhibitory effect as % of the control (% of the control) [15]: 2
- inhibitory effect as % of the control (% of the control) [16]: 10
- inhibitory effect as % of the control (% of the control) [17]: 5
- inhibitory effect as % of the control (% of the control) [18]: 0
- inhibitory effect as % of the control (% of the control) [19]: 0
- IC50 [20]: 0.01 nM
- inhibitory effect as % of the control (% of the control) [21]: 10
- inhibitory effect as % of the control (% of the control) [22]: 10
- inhibitory effect as % of the control (% of the control) [23]: 2
- inhibitory effect as % of the control (% of the control) [24]: 0
- inhibitory effect as % of the control (% of the control) [25]: 2
- inhibitory effect as % of the control (% of the control) [26]: 0
- inhibitory effect as % of the control (% of the control) [27]: 75
- inhibitory effect as % of the control (% of the control) [28]: 10
Molecule: LSAL (also called LSAL; the peptide) [Leu-Ser-Ala-Leu]

- relative potency (% of the LSAL effect) (% of the LSAL effect) [4]: 80.9
Molecule: LSALGGGY [Leu-Ser-Ala-Leu-Gly-Gly-Gly-Tyr]
